Data taken from PMC10504324, “A microprotein N1DARP encoded by LINC00261 promotes Notch1 intracellular domain (N1ICD) degradation via disrupting USP10-N1ICD interaction to inhibit chemoresistance in Notch1-hyperactivated pancreatic cancer” (Cell Discovery, 2023).
Values joined by “and” are separate entries in the source; they are usually repeats but may differ in a detail not shown here. Equal entries are not always repeated. Each block holds one molecule with its values, some of them ahead of it. Bridge positions count the residues as written; N and C are the ends. Square brackets hold non-standard residues; d marks the D form. Ends that are not written are not given here. S5 = C=CCCC[C@](C)(N)C(=O)O

Columns and labels:
[1] = biological target: N1ICD (wild type; source not stated) (UniProt P46531); experiment: co-IP followed by western blotting (band intensity); conditions: HEK293T, IgG control 0.00
[2] = biological target: AH2, alpha-helical peptide 2 of N1DARP (human); experiment: SPR; BIAcore T200 (GE Healthcare); dissociation constant calculated with BIA-evaluation software; which partner was immobilised is not stated
ANK domain of N1ICD = ANK domain of N1ICD (Homo sapiens, UniProt P46531); experiment: SPR analysis, affinity for ANK domain; format: binding; conditions: mAH2 compared with AH2, Fig. S8E
Description: The binding kinetics between N1DARP or SAH-mAH2-5 and the indicated peptides were analyzed using a SPR assay with a BIAcore T200 instrument (GE Healthcare, Pittsburgh, PA, USA). The dissociation constant was calculated using BIA-evaluation software.
309 was determined using reversed phase HPLC with electrospray ionization mass spectrometric detection.
311 Supplementary Note S1. Generation and modification of N1DARP-derived stapled peptide SAH-
313 To evaluate the therapeutic potential of disrupting the N1ICD-USP10 interaction with N1DARP and
314 define a more druggable target, we simulated the tertiary structure of N1DARP using I-TASSAR, a
315 hierarchical server for protein structure prediction4, and identified two α-helical peptides (AH1 and
316 AH2) (Fig. S8A, left panel).
318 we constructed and purified six subdomains with α-helix secondary structure of ANK, designated from
320 S8B-S8D). To optimize the physicochemical properties of AH2, we first checked the amino acid
322 cancer cells to AH2; therefore, we tried amino acid substitution of Glu32 by Gln32. SPR analysis
324 mAH2 (Fig. S8E). Next, to identify the indispensable amino acids mediating mAH2 and ANK
325 interactions, we substituted each amino acid of mAH2 with Ala, followed by SPR analysis. The results
328 i + 4, or i + 7) and denoted them as stapled α-helices (SAHs). […]

Capan1 = experiment: IC50 assay, chemosensitivity to GEM; format: cell-based; conditions: Homo sapiens, CAPAN-1; Capan1, Vector; Fig. 5j
[3] = system: metastatic pancreatic cancers; conditions: cited from earlier work; for remission in clinical studies: γ-secretase inhibitors, metastatic pancreatic cancers
From the text: The Notch pathway is active in a broad spectrum of human cancers, including breast, colorectal, lung, prostate, glioblastoma, and pancreatic cancer. Notch signaling is positively associated with pancreatic tumor initiation, progression, and drug resistance in both cell lines and genetic mutant mouse models[7],[8]. In preclinical models, pharmacological inhibition of Notch signaling by small molecules designed to affect HES1 transcriptional function (JI051 and JI130)[9] and natural agents targeting the Notch pathway, such as curcumin, genistein, quercetin, and sulforaphane, slowed tumor prol ...

[4] = biological target: T1, ANK domain of Notch1 intracellular domain (N1ICD-ANK) (UniProt P46531 1927-2122); experiment: SPR; BIAcore T200 (GE Healthcare); dissociation constant calculated with BIA-evaluation software; which partner was immobilised is not stated; conditions: both partners purified
T1 construct: Notch1, ankyrin repeat (ANK) domain of the intracellular domain; the numbers fit human NOTCH1 (2555 aa); also called ANK repeat

[5] = biological target: T2, ANK domain of Notch2 intracellular domain (N2ICD-ANK) (UniProt Q04721 1827-2038); experiment: as above; conditions: both partners purified
T2 construct: Notch2, ANK domain of the intracellular domain; position 1827-2038, length 212 aa printed
T2 sequence (looked up): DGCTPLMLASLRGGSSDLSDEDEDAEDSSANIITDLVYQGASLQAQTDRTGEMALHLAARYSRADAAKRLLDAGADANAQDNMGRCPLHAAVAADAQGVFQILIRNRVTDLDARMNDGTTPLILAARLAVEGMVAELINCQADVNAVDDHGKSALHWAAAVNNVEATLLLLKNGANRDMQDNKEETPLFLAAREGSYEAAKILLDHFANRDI

[6] = biological target: T3, ANK domain of Notch3 intracellular domain (N3ICD-ANK) (UniProt Q9UM47 1838-2000); experiment: as above; conditions: both partners purified
T3 construct: Notch3, ANK domain of the intracellular domain; position 1838-2000, length 163 aa printed
T3 sequence (looked up): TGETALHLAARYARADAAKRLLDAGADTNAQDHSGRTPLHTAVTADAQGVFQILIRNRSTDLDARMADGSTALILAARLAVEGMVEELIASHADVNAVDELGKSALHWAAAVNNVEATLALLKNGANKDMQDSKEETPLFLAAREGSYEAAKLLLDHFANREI

[7] = biological target: T4, ANK domain of Notch4 intracellular domain (N4ICD-ANK) (UniProt Q99466 1633-1798); experiment: as above; conditions: both partners purified
T4 construct: Notch4, ANK domain of the intracellular domain; position 1633-1798, length 166 aa printed
T4 sequence (looked up): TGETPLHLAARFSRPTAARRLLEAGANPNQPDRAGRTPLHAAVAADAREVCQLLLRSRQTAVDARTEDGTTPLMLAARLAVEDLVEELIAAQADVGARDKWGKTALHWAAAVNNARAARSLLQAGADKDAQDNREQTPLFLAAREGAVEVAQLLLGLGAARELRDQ

[8] = IP: Anti-Flag (N1DARP-Flag), blot: Myc
[9] = IP: Anti-Myc (N1ICD-Myc), blot: Flag

response [1, 8]: 0.91
response [1, 9]: 0.93
Molecule: wild-type N1DARP (overexpressed) G12A

Kd [2]: 23300 nM
Molecule: ANK2, subdomain of the ANK domain of N1ICD (from UniProt P46531 19-2555) (domain or fragment)

response [1, 8]: 0.87
response [1, 9]: 1.07
Molecule: wild-type N1DARP (overexpressed) D41A

affinity for ANK after substitution of Glu32 by Gln32 (ANK domain of N1ICD): comparable affinity
Molecule: mAH2: AH2 with amino acid substitution of Glu32 by Gln32 (YAKRIFYQLLSKQL)

response [1, 8]: 0.43
response [1, 9]: 0.31
Molecule: wild-type N1DARP (overexpressed) Y34A

response [1, 8]: 0
response [1, 9]: 0
Molecule: wild-type N1DARP (overexpressed) Y20A; Y34A

Kd [2]: 42800 nM
Molecule: ANK5, subdomain of the ANK domain of N1ICD (from UniProt P46531 19-2555) (domain or fragment)

Kd [2]: 85800 nM
Molecule: ANK3, subdomain of the ANK domain of N1ICD (from UniProt P46531 19-2555) (domain or fragment)

response [1, 8]: 1.01
response [1, 9]: 0.87
Molecule: wild-type N1DARP (overexpressed) L28A

IC50 (Capan1): 44 nM
Molecule: Nc1ccn([C@@H]2O[C@H](CO)[C@@H](O)C2(F)F)c(=O)n1 [GEM, gemcitabine]

Kd [2]: 66100 nM
Molecule: ANK4, subdomain of the ANK domain of N1ICD (from UniProt P46531 19-2555) (domain or fragment)

response [1, 8]: 0.26
response [1, 9]: 0.35
Molecule: wild-type N1DARP (overexpressed) Y20A

Molecule: tarextumab: fully human IgG2 antibody that inhibits Notch2/3 receptors
remission and tolerance, phase II study ([3]; metastatic pancreatic cancer, in combination with gemcitabine (GEM) and paclitaxel): remarkable remission and tolerance

Kd [2]: 43.4 nM
Molecule: ANK1, subdomain of the ANK domain of N1ICD (from UniProt P46531 19-2555) (domain or fragment)

Molecule: CC(C)(C(=O)NCC(F)(F)C(F)(F)F)C(=O)N[C@@H]1C(=O)Nc2ccccc2-c2ccccc21 [RO4929097]
remission in clinical studies [3]: no significant remission was observed

Molecule: O=C(O)CC[C@H]1CC[C@@](c2cc(F)ccc2F)(S(=O)(=O)c2ccc(Cl)cc2)CC1 [MK-0752]
remission in clinical studies [3]: no significant remission was observed

Molecule: CCC[C@H](N[C@H]1CCc2cc(F)cc(F)c2C1)C(=O)Nc1cn(C(C)(C)CNCC(C)(C)C)cn1 [PF-03084014]
remission in clinical studies [3]: no significant remission was observed

Kd [2]: 64200 nM
Molecule: ANK6, subdomain of the ANK domain of N1ICD (from UniProt P46531 19-2555) (domain or fragment)

Kd [4]: 213 nM
B1: AH1, alpha-helical peptide 1 of N1DARP (peptide)
peptide: LLEKKRQY
notes: N1DARP, 41-aa microprotein encoded by LINC00261 (ORF12); source: synthetic peptide (Chinese Peptide, Inc., Hangzhou; > 98% purity)

Kd [4]: 97.7 nM
Molecule: Y[S5]KRI[S5]YQLLSKQL (staple 2-6) [SAH-mAH2-2, stapled alpha-helix of mAH2]

Kd [4]: 60.4 nM and 45.2 nM
B2: mAH2, AH2 of N1DARP with Glu32 substituted by Gln32 (peptide)
peptide: YAKRIFYQLLSKQL
notes: N1DARP (41 aa, encoded by LINC00261) residues 20-33 with E32Q; also called modified AH2; substituted AH2; source: synthetic peptide (Chinese Peptide, Inc., Hangzhou; > 98% purity)

Kd [4]: 96.1 nM
B3: mAH2-1, alanine mutant of mAH2 (peptide)
peptide: AAKRIFYQLLSKQL
notes: N1DARP residues 20-33 with E32Q and position 1 of the peptide (Y20) to Ala; source: synthetic peptide (Chinese Peptide, Inc., Hangzhou; > 98% purity)

Kd [4]: 55.5 nM
B4: mAH2-10, alanine mutant of mAH2 (peptide)
peptide: YAKRIFYQLASKQL
notes: N1DARP residues 20-33 with E32Q and position 10 of the peptide (L29) to Ala; source: synthetic peptide (Chinese Peptide, Inc., Hangzhou; > 98% purity)

Kd [4]: 83.9 nM
B5: mAH2-11, alanine mutant of mAH2 (peptide)
peptide: YAKRIFYQLLAKQL
notes: N1DARP residues 20-33 with E32Q and position 11 of the peptide (S30) to Ala; source: synthetic peptide (Chinese Peptide, Inc., Hangzhou; > 98% purity)

Kd [4]: 87.4 nM
B6: mAH2-8, alanine mutant of mAH2 (peptide)
peptide: YAKRIFYALLSKQL
notes: N1DARP residues 20-33 with E32Q and position 8 of the peptide (Q27) to Ala; source: synthetic peptide (Chinese Peptide, Inc., Hangzhou; > 98% purity)

Kd [4]: 5960 nM
B7: mAH2-14, alanine mutant of mAH2 (Leu33 to Ala) (peptide)
peptide: YAKRIFYQLLSKQA
notes: N1DARP residues 20-33 with E32Q and position 14 of the peptide (Leu33) to Ala; source: synthetic peptide (Chinese Peptide, Inc., Hangzhou; > 98% purity)

Kd [4]: 99 nM
B8: mAH2-13, alanine mutant of mAH2 (peptide)
peptide: YAKRIFYQLLSKAL
notes: N1DARP residues 20-33 with position 13 of the peptide (residue 32: Glu in N1DARP, Gln in mAH2) to Ala; source: synthetic peptide (Chinese Peptide, Inc., Hangzhou; > 98% purity)

Kd [4]: 60.4 nM
B9: AH2, alpha-helical peptide 2 of N1DARP (peptide)
peptide: YAKRIFYQLLSKEL
notes: N1DARP, 41-aa microprotein encoded by LINC00261 (ORF12); source: synthetic peptide (Chinese Peptide, Inc., Hangzhou; > 98% purity); 'purified AH2 peptide'

Kd [4]: 78.2 nM
B10: mAH2-12, alanine mutant of mAH2 (peptide)
peptide: YAKRIFYQLLSAQL
notes: N1DARP residues 20-33 with E32Q and position 12 of the peptide (K31) to Ala; source: synthetic peptide (Chinese Peptide, Inc., Hangzhou; > 98% purity)

Kd [4]: 57.5 nM
B11: mAH2-5, alanine mutant of mAH2 (peptide)
peptide: YAKRAFYQLLSKQL
notes: N1DARP residues 20-33 with E32Q and position 5 of the peptide (I24) to Ala; source: synthetic peptide (Chinese Peptide, Inc., Hangzhou; > 98% purity)

Kd [4]: 63.6 nM
B12: mAH2-6, alanine mutant of mAH2 (peptide)
peptide: YAKRIAYQLLSKQL
notes: N1DARP residues 20-33 with E32Q and position 6 of the peptide (F25) to Ala; source: synthetic peptide (Chinese Peptide, Inc., Hangzhou; > 98% purity)

Kd [4]: 288 nM
B13: mAH2-9, alanine mutant of mAH2 (Leu28 to Ala) (peptide)
peptide: YAKRIFYQALSKQL
notes: N1DARP residues 20-33 with E32Q and position 9 of the peptide (Leu28) to Ala; source: synthetic peptide (Chinese Peptide, Inc., Hangzhou; > 98% purity)

Kd [4]: 74.5 nM
B14: mAH2-4, alanine mutant of mAH2 (peptide)
peptide: YAKAIFYQLLSKQL
notes: N1DARP residues 20-33 with E32Q and position 4 of the peptide (R23) to Ala; source: synthetic peptide (Chinese Peptide, Inc., Hangzhou; > 98% purity)

Kd [4]: 51.1 nM
B15: mAH2-3, alanine mutant of mAH2 (peptide)
peptide: YAARIFYQLLSKQL
notes: N1DARP residues 20-33 with E32Q and position 3 of the peptide (K22) to Ala; source: synthetic peptide (Chinese Peptide, Inc., Hangzhou; > 98% purity)

Kd [4]: 134 nM
Molecule: [S5]AKR[S5]FYQLLSKQL (staple 1-5) [SAH-mAH2-1, stapled alpha-helix of mAH2]

Kd [4]: 0.898 nM
Kd [5]: 539 nM
Kd [6]: 69 nM
Kd [7]: 35.2 nM
Molecule: YAKRI[S5]YQLLSK[S5]L (staple 6-13) [SAH-mAH2-5, N1DARP-derived stapled peptide]

Kd [4]: 10.5 nM
Molecule: YAKRI[S5]YQL[S5]SKQL (staple 6-10) [SAH-mAH2-3, stapled alpha-helix of mAH2]

Kd [4]: 25.8 nM
Molecule: [S5]AKRIFY[S5]LLSKQL (staple 1-8) [SAH-mAH2-4, stapled alpha-helix of mAH2]
